Assays:
[1] = system: indicator molecule containing the cleavable sequence (GPQGIFGQ) with a terminal biotin group connected via a polyethylene glycol spacer/linker, intact
[2] = system: fluorescence resonance energy transfer (FRET) peptide of the commercial MMP-9 activity assay kit

Chain of active MMP-9 (Alere San Diego) (chain, as listed by the source): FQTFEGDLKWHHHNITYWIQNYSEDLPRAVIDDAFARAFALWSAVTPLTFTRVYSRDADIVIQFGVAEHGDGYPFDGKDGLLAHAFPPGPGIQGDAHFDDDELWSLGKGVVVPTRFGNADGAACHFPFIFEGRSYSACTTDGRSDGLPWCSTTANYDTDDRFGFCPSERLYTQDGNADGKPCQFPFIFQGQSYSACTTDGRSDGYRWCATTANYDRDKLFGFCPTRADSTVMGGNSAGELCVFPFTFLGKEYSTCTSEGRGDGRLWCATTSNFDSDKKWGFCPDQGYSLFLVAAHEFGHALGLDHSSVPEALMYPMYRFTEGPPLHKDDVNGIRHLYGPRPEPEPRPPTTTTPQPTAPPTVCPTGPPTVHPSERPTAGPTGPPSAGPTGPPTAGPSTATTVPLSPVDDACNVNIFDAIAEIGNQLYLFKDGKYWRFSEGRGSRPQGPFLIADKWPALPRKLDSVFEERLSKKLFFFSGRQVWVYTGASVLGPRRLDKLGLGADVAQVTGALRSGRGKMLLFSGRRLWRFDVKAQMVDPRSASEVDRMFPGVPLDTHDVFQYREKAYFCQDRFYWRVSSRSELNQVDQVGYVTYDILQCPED
Chain of MMP8 (Enzo) (chain, as listed by the source): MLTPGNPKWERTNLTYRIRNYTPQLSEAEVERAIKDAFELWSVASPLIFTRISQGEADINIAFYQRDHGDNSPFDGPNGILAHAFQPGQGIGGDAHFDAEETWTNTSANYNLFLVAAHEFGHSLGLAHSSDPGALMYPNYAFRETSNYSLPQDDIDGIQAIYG
Chain of MMP2 (Enzo) (chain, as listed by the source): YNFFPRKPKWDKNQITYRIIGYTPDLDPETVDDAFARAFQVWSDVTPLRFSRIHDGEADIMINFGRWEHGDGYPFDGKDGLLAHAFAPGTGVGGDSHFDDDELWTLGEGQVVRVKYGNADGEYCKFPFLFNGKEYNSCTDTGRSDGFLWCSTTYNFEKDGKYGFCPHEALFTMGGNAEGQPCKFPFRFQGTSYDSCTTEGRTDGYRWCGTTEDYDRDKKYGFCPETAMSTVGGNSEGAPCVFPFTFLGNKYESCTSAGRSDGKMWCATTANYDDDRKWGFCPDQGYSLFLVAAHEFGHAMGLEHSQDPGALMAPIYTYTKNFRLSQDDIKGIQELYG
Chain of MMP9 (Enzo) (chain, as listed by the source): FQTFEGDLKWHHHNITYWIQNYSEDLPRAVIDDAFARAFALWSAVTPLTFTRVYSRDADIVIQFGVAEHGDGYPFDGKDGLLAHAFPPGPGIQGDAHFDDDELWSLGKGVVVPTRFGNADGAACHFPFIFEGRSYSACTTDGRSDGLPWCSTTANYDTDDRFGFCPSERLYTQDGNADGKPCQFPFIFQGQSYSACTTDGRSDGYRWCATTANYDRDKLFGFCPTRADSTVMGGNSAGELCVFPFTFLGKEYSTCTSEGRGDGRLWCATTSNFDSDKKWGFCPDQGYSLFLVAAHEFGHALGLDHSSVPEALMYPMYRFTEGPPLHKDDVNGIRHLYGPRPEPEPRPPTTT
Chain of MMP3 (Enzo) (chain, as listed by the source): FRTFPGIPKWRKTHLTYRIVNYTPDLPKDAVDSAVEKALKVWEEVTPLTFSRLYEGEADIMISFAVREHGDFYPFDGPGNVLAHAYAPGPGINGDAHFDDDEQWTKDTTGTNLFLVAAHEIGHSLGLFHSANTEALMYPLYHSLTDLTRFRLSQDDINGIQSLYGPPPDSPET
Chain of MMP10 (Enzo) (chain, as listed by the source): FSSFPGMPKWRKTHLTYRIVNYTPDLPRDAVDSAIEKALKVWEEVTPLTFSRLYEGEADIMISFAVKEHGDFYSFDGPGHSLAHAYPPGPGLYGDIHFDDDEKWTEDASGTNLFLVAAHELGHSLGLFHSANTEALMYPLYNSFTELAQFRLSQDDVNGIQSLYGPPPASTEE

## MMP2 (Enzo)
[1]
  reader value at 0.5 µg/ml MMP (lateral flow): 1610 reader units

## active MMP-9 (Alere San Diego)
[2]
  Reference assay read-out at 0 ng/ml MMP9 (blank): 3820
  Reference assay read-out at 3.90625 ng/ml MMP9: 7600
  Reference assay read-out at 7.8125 ng/ml MMP9: 13100
  Reference assay read-out at 15.625 ng/ml MMP9: 31300
  Reference assay read-out at 31.25 ng/ml MMP9: 62300
  Reference assay read-out at 62.5 ng/ml MMP9: 113000
  Reference assay read-out at 125 ng/ml MMP9: 163000
  Reference assay read-out at 250 ng/ml MMP9: 204000
[1]
  OD405 at 0.39 ng/ml MMP9 (ELISA, streptavidin plate, CF1522-AP): 0.14 OD405
  OD405 at 0.78 ng/ml MMP9 (ELISA, streptavidin plate, CF1522-AP): 0.14 OD405
  OD405 at 1.56 ng/ml MMP9 (ELISA, streptavidin plate, CF1522-AP): 0.14 OD405
  OD405 at 3.13 ng/ml MMP9 (ELISA, streptavidin plate, CF1522-AP): 0.13 OD405
  OD405 at 6.25 ng/ml MMP9 (ELISA, streptavidin plate, CF1522-AP): 0.17 OD405
  OD405 at 12.50 ng/ml MMP9 (ELISA, streptavidin plate, CF1522-AP): 0.18 OD405
  OD405 at 25.00 ng/ml MMP9 (ELISA, streptavidin plate, CF1522-AP): 0.27 OD405
  OD405 at 50.00 ng/ml MMP9 (ELISA, streptavidin plate, CF1522-AP): 0.5 OD405
  Ultimate ELTABA reader value at 3.90625 ng/ml MMP9 (lateral flow): 413 reader units
  Ultimate ELTABA reader value at 7.8125 ng/ml MMP9 (lateral flow): 524 reader units
  Ultimate ELTABA reader value at 15.625 ng/ml MMP9 (lateral flow): 882 reader units
  Ultimate ELTABA reader value at 31.25 ng/ml MMP9 (lateral flow): 2030 reader units
  Ultimate ELTABA reader value at 62.5 ng/ml MMP9 (lateral flow): 3830 reader units
  Ultimate ELTABA reader value at 125 ng/ml MMP9 (lateral flow): 5580 reader units
  Ultimate ELTABA reader value at 250 ng/ml MMP9 (lateral flow): 6220 reader units
  detectable limit for MMP-9 (lateral flow, sample volume 75 µl): approximately 4 ng/ml
  reader value at 0.9765625 ng/ml MMP9 (lateral flow): 338 reader units
  reader value at 0.98 ng/ml MMP9 (lateral flow): 338 reader units
  reader value at 1.95 ng/ml MMP9 (lateral flow): 343 reader units
  reader value at 1.953125 ng/ml MMP9 (lateral flow): 343 reader units
  reader value at 3.90625 ng/ml MMP9 (lateral flow): 413 reader units
  reader value at 3.91 ng/ml MMP9 (lateral flow): 413 reader units
  reader value at 7.81 ng/ml MMP9 (lateral flow): 524 reader units
  reader value at 7.8125 ng/ml MMP9 (lateral flow): 524 reader units
  reader value at 15.625 ng/ml MMP9 (lateral flow): 882 reader units
  reader value at 15.63 ng/ml MMP9 (lateral flow): 882 reader units
  reader value at 31.25 ng/ml MMP9 (lateral flow): 2030 reader units
  reader value at 62.5 ng/ml MMP9 (lateral flow): 3830 reader units
  reader value at 62.50 ng/ml MMP9 (lateral flow): 3830 reader units
  reader value at 125 ng/ml MMP9 (lateral flow): 5580 reader units
  reader value at 250 ng/ml MMP9 (lateral flow): 6220 reader units
  reader value at 500 ng/ml MMP9 (lateral flow): 6730 reader units
  reader value at 1000 ng/ml MMP9 (lateral flow): 6770 reader units
  sensitivity of the MMP9 standard curves (ELISA and lateral flow): sensitivity down to 4 ng/ml

## MMP3 (Enzo)
[1]
  reader value at 0.5 µg/ml MMP (lateral flow): 336 reader units

## MMP10 (Enzo)
[1]
  reader value at 0.5 µg/ml MMP (lateral flow): 444 reader units

## MMP8 (Enzo)
[1]
  reader value at 0.5 µg/ml MMP (lateral flow): 1140 reader units

## MMP9 (Enzo)
[1]
  reader value at 0.5 µg/ml MMP (lateral flow): 3840 reader units
